Test results: patent publication US20240132593A1 (KINETA, published 2024)
Residue numbers refer to the chain shown, from its start. Names may count otherwise.

Legend:
VSTB174 [1] = assay: peptide blocking ELISA on plate-bound VISTA, peptide 20 ug/mL
Antibody No. 245.1 [2] = assay: as above
Antibody No. 465.1 [3] = molecular target: T1, Antibody No. 465.1; assay: as above
T1 construct: also called Ab No. 465.1

VSTB174 [4] = assay: peptide blocking ELISA on plate-bound VISTA, peptide 2 ug/mL
Antibody No. 245.1 [5] = assay: as above
Antibody No. 465.1 [6] = molecular target: T1, Antibody No. 465.1; assay: as above
[7] = molecular target: T2, hVISTA ECD-Fc R54A, F62A, Q63A (human); assay: ELISA on immobilized VISTA-Fc (5 µg/mL), antibody at 10 µg/mL
T2 construct: also called human VISTA-Fc 54A62A63A; triple VISTA-Fc mutant

[8] = molecular target: T3, VISTA-His ECD (Sino Biological 13482-H08H) (human, UniProt Q9H7M9 33-194); assay: BLI (Octet K2), ratio of off-rates at pH 7.4 to control Ab No. 245.1
T3 construct: Bought protein; also called VISTA-ECD; not shown: His tag

[9] = molecular target: T3, VISTA-His ECD (Sino Biological …); assay: BLI (Octet K2), ratio of the pH 6.0 fold change to the pH 7.4 fold change
rhFcRn (R&D) [10] = molecular target: T4, rhFcRn (R&D) (human (printed as rhFcRn), UniProt P55899 24-297; P61769 21-119); assay: BLI Octet K2, antibody on FAB2G sensor, rhFcRn analyte (row of 200 nM), pH 6.0, 1:1 global fit
T4 construct: Bought reagent; also called neonatal Fc receptor; FcRn ligand

rhFcRn (R&D) [11] = molecular target: T4, rhFcRn (R&D); assay: BLI Octet K2, antibody on FAB2G sensor, rhFcRn analyte (row of 50 nM), pH 6.0, 1:1 global fit
rhFcRn (R&D) [12] = molecular target: T4, rhFcRn (R&D); assay: BLI Octet K2, antibody on FAB2G sensor, rhFcRn analyte (row of 800 nM), pH 6.0, 1:1 global fit

Chain of VSTB174 (VH, as listed by the source, chain 1 of 2): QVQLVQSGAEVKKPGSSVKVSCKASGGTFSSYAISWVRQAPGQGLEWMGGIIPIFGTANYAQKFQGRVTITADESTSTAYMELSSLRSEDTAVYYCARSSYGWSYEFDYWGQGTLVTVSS
Chain of VSTB174 (VL, as listed by the source, chain 2 of 2): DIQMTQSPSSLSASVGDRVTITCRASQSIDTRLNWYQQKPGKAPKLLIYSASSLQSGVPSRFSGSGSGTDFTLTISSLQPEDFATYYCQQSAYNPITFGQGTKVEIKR

B1: Spiked Peptide 26 (HRVHGAMELQVQTGK) (peptide)
peptide: HRVHGAMELQVQTGK
notes: synthetic overlapping peptide from human VISTA
VSTB174 [1]
  percent reduction in ELISA signal: 25%
Antibody No. 245.1 [2]
  percent reduction in ELISA signal: 0%
Antibody No. 465.1 [3]
  percent reduction in ELISA signal: 2%
VSTB174 [4]
  percent reduction in ELISA signal: 17%
Antibody No. 245.1 [5]
  percent reduction in ELISA signal: 0%
Antibody No. 465.1 [6]
  percent reduction in ELISA signal: 0%

B2: Antibody No. 457.1 (antibody, human IgG1, kappa)
light: EIVLTQSPATLSLSPGERATLSCGASQSVSSNYLAWYQQKPGLAPRLLIYGASSRATGVPDRFSGSGSGTDFTLTISRLEPEDFAVYYCQQYGYSYTFGQGTKLEIKRTVAAPSVFIFPPSDEQLKSGTASVVCLLNNFYPREAKVQWKVDNALQSGNSQESVTEQDSKDSTYSLSSTLTLSKADYEKHKVYACEVTHQGLSSPVTKSFNRGEC
heavy: not shown
[7]
  binding result: binds

B3: Antibody No. 269.1 (antibody, human IgG1, kappa)
light: EIVLTQSPDFQSVTPKEKVTITCRASQSIGSSLHWYQQKPDQSPKLLIKYASQSISGVPSRFSGSGSGTDFTLTINSLEAEDAAAYYCHQSSSLPQTFGQGTKVEIKRTVAAPSVFIFPPSDEQLKSGTASVVCLLNNFYPREAKVQWKVDNALQSGNSQESVTEQDSKDSTYSLSSTLTLSKADYEKHKVYACEVTHQGLSSPVTKSFNRGEC
heavy: not shown
[7]
  binding result: binds

B4: Antibody No. 474.1 with VH Y32H, VH Y52H (antibody, V domains shown)
VH: QVQLQESGPGLVKPSETLSLTCTVSGGSISSHYWSWIRQPPGKGLEWIGYIHYSGSTNYNPSLKSRVTISVDTSKSQFSLKLSSVTAADTAVYYCARDIPAFAFDIWGQGTMVIVSS
VL: EIVLTQSPATLSLSPGERATLSCRASQSVSYYLAWYQQKPGQAPRLLIYDAFNRATGIPARFSGSGSGTDFTLTISSLEPEDFAVYYCQQRINWPLTFGGGTKVEIK
[8]
  Kdis (pH 7.4) ÷ Kdis, Ab No. 245.1 (pH 7.4): 5 s⁻¹
[9]
  ΔKdis (pH 6.0)/ΔKdis (pH 7.4): 3.4

B5: Antibody No. 474.1 with VL Y31H, VH Y32H, VH Y33H (antibody, V domains shown)
VH: B4 VH with Y33H, H52Y
VL: B4 VL with Y31H
[8]
  Kdis (pH 7.4) ÷ Kdis, Ab No. 245.1 (pH 7.4): 68 s⁻¹
[9]
  ΔKdis (pH 6.0)/ΔKdis (pH 7.4): 1.5

B6: Antibody No. 474.1 with VL Y32H, VH Y32H (antibody, V domains shown)
VH: B4 VH with H52Y
VL: B4 VL with Y32H
[8]
  Kdis (pH 7.4) ÷ Kdis, Ab No. 245.1 (pH 7.4): 15 s⁻¹
[9]
  ΔKdis (pH 6.0)/ΔKdis (pH 7.4): 5.9

B7: Antibody No. 474.1 with VL Y31H, VH Y52H (second of two rows so labelled, the 40th table r13) (antibody, human IgG1, V domains shown)
VH: B4 VH with H32Y
VL: B4 VL with Y31H
[8]
  Kdis (pH 7.4) ÷ Kdis, Ab No. 245.1 (pH 7.4): 37 s⁻¹
[9]
  ΔKdis (pH 6.0)/ΔKdis (pH 7.4): 3.8

B8: Antibody No. 474.1 with VL Y32H, VH Y32H, VH Y33H (antibody, V domains shown)
VH: B4 VH with Y33H, H52Y
VL: B4 VL with Y32H
[8]
  Kdis (pH 7.4) ÷ Kdis, Ab No. 245.1 (pH 7.4): 56 s⁻¹
[9]
  ΔKdis (pH 6.0)/ΔKdis (pH 7.4): 2.4

B9: Antibody No. 474.1 with VL Y32H, VH Y33H (antibody, V domains shown)
VH: B4 VH with H32Y, Y33H, H52Y
VL: B4 VL with Y32H
[8]
  Kdis (pH 7.4) ÷ Kdis, Ab No. 245.1 (pH 7.4): 52 s⁻¹
[9]
  ΔKdis (pH 6.0)/ΔKdis (pH 7.4): 2.7

B10: Antibody No. 474.1 with VH Y32H, VH Y33H, VH Y52H (antibody, V domains shown)
VH: B4 VH with Y33H
VL: B4 VL
[8]
  Kdis (pH 7.4) ÷ Kdis, Ab No. 245.1 (pH 7.4): 14 s⁻¹
[9]
  ΔKdis (pH 6.0)/ΔKdis (pH 7.4): 5.2

B11: Antibody No. 474.1 with VH Y32H, VH Y33H (antibody, V domains shown)
VH: B4 VH with Y33H, H52Y
VL: B4 VL
[8]
  Kdis (pH 7.4) ÷ Kdis, Ab No. 245.1 (pH 7.4): 4 s⁻¹
[9]
  ΔKdis (pH 6.0)/ΔKdis (pH 7.4): 6.9

B12: Antibody No. 474.1 with VL Y32H, VH Y32H, VH Y52H (antibody, V domains shown)
VH: B4 VH
VL: B4 VL with Y32H
[8]
  Kdis (pH 7.4) ÷ Kdis, Ab No. 245.1 (pH 7.4): 71 s⁻¹
[9]
  ΔKdis (pH 6.0)/ΔKdis (pH 7.4): 1.8

B13: Antibody No. 474.1 with VL Y31H, VH Y32H (antibody, V domains shown)
VH: B4 VH with H52Y
VL: B4 VL with Y31H
[8]
  Kdis (pH 7.4) ÷ Kdis, Ab No. 245.1 (pH 7.4): 12 s⁻¹
[9]
  ΔKdis (pH 6.0)/ΔKdis (pH 7.4): 5.8

B14: Antibody No. 474.1 with VL Y31H, VH Y32H, VH Y52H (antibody, V domains shown)
VH: B4 VH
VL: B4 VL with Y31H
[8]
  Kdis (pH 7.4) ÷ Kdis, Ab No. 245.1 (pH 7.4): 61 s⁻¹
[9]
  ΔKdis (pH 6.0)/ΔKdis (pH 7.4): 2

B15: Antibody No. 474.1 with VL Y32H, VH Y52H (antibody, V domains shown)
VH: B4 VH with H32Y
VL: B4 VL with Y32H
[8]
  Kdis (pH 7.4) ÷ Kdis, Ab No. 245.1 (pH 7.4): 45 s⁻¹
[9]
  ΔKdis (pH 6.0)/ΔKdis (pH 7.4): 3.4

B16: Spiked Peptide 31 (SSSQESENITAA) (peptide)
peptide: SSSQESENITAA
notes: as for B1
VSTB174 [1]
  percent reduction in ELISA signal: 27%
Antibody No. 245.1 [2]
  percent reduction in ELISA signal: 8%
Antibody No. 465.1 [3]
  percent reduction in ELISA signal: 5%
VSTB174 [4]
  percent reduction in ELISA signal: 15%
Antibody No. 245.1 [5]
  percent reduction in ELISA signal: 0%
Antibody No. 465.1 [6]
  percent reduction in ELISA signal: 0%

B17: Spiked Peptide 25 (HHHSEHRVHGAMELQ) (peptide)
peptide: HHHSEHRVHGAMELQ
notes: as for B1
VSTB174 [1]
  percent reduction in ELISA signal: 83%
Antibody No. 245.1 [2]
  percent reduction in ELISA signal: 52%
Antibody No. 465.1 [3]
  percent reduction in ELISA signal: 67%
VSTB174 [4]
  percent reduction in ELISA signal: 45%
Antibody No. 245.1 [5]
  percent reduction in ELISA signal: 10%
Antibody No. 465.1 [6]
  percent reduction in ELISA signal: 10%

B18: Spiked Peptide 24 (VVEIRHHHSEHRVHG) (peptide)
peptide: VVEIRHHHSEHRVHG
notes: as for B1
VSTB174 [1]
  percent reduction in ELISA signal: 82%
Antibody No. 245.1 [2]
  percent reduction in ELISA signal: 41%
Antibody No. 465.1 [3]
  percent reduction in ELISA signal: 43%
VSTB174 [4]
  percent reduction in ELISA signal: 48%
Antibody No. 245.1 [5]
  percent reduction in ELISA signal: 8%
Antibody No. 465.1 [6]
  percent reduction in ELISA signal: 16%

B19: Spiked Peptide 23 (LYCCLVVEIRHHHSE) (peptide)
peptide: LYCCLVVEIRHHHSE
notes: as for B1
VSTB174 [1]
  percent reduction in ELISA signal: 67%
Antibody No. 245.1 [2]
  percent reduction in ELISA signal: 37%
Antibody No. 465.1 [3]
  percent reduction in ELISA signal: 36%
VSTB174 [4]
  percent reduction in ELISA signal: 31%
Antibody No. 245.1 [5]
  percent reduction in ELISA signal: 9%
Antibody No. 465.1 [6]
  percent reduction in ELISA signal: 2%

B20: Spiked Peptide 29 (DAPSNCVVYPSSSQE) (peptide)
peptide: DAPSNCVVYPSSSQE
notes: as for B1
VSTB174 [1]
  percent reduction in ELISA signal: 10%
Antibody No. 245.1 [2]
  percent reduction in ELISA signal: 0%
Antibody No. 465.1 [3]
  percent reduction in ELISA signal: 14%
VSTB174 [4]
  percent reduction in ELISA signal: 8%
Antibody No. 245.1 [5]
  percent reduction in ELISA signal: 0%
Antibody No. 465.1 [6]
  percent reduction in ELISA signal: 0%

B21: Spiked Peptide 28 (VQTGKDAPSNCVVYP) (peptide)
peptide: VQTGKDAPSNCVVYP
notes: as for B1
VSTB174 [1]
  percent reduction in ELISA signal: 5%
Antibody No. 245.1 [2]
  percent reduction in ELISA signal: 5%
Antibody No. 465.1 [3]
  percent reduction in ELISA signal: 0%
VSTB174 [4]
  percent reduction in ELISA signal: 0%
Antibody No. 245.1 [5]
  percent reduction in ELISA signal: 0%
Antibody No. 465.1 [6]
  percent reduction in ELISA signal: 0%

B22: Spiked Peptide 27 (AMELQVQTGKDAPSN) (peptide)
peptide: AMELQVQTGKDAPSN
notes: as for B1
VSTB174 [1]
  percent reduction in ELISA signal: 24%
Antibody No. 245.1 [2]
  percent reduction in ELISA signal: 0%
Antibody No. 465.1 [3]
  percent reduction in ELISA signal: 3%
VSTB174 [4]
  percent reduction in ELISA signal: 13%
Antibody No. 245.1 [5]
  percent reduction in ELISA signal: 0%
Antibody No. 465.1 [6]
  percent reduction in ELISA signal: 0%

B23: Antibody No. 150.1 (antibody, human IgG1, kappa)
heavy: QVQLQESGPGLVKPSETLSLTCTVSGGSISSYYWSWIRQPPGKGLEWIGYIYYSGSTNYNPSLKSRVTISVDTSKSQFSLKLSSVTAADTAVYYCARDIPAFAFDIWGQGTMVIVSSASTKGPSVFPLAPSSKSTSGGTAALGCLVKDYFPEPVTVSWNSGALTSGVHTFPAVLQSSGLYSLSSVVTVPSSSLGTQTYICNVNHKPSNTKVDKKVEPKSCDKTHTCPPCPAPELLGGPSVFLFPPKPKDTLYITREPEVTCVVVDVSHEDPEVKFNWYVDGVEVHNAKTKPREEQYNSTYRVVSVLTVLHQDWLNGKEYKCKVSNKALPAPIEKTISKAKGQPREPQVYTLPPSRDELTKNQVSLTCLVKGFYPSDIAVEWESNGQPENNYKTTPPVLDSDGSFFLYSKLTVDKSRWQQGNVFSCSVMHEALHNHYTQKSLSLSPGK
light: not shown
notes: Human IgG1 with the YTE mutations (M252Y, S254T, T256E, EU numbering), kappa light chain; It is left out here; copies: 2 + 2
rhFcRn (R&D) [10]
  Kd: 84.1 nM
  koff: 0.0192 s⁻¹
  kon: 228000 M⁻¹ s⁻¹
rhFcRn (R&D) [11]
  Kd: 84.1 nM
  koff: 0.0192 s⁻¹
  kon: 228000 M⁻¹ s⁻¹
rhFcRn (R&D) [12]
  Kd: 84.1 nM
  koff: 0.0192 s⁻¹
  kon: 228000 M⁻¹ s⁻¹

B24: Spiked Peptide 30 (CVVYPSSSQESENIT) (peptide)
peptide: CVVYPSSSQESENIT
notes: as for B1
VSTB174 [1]
  percent reduction in ELISA signal: 21%
Antibody No. 245.1 [2]
  percent reduction in ELISA signal: 0%
Antibody No. 465.1 [3]
  percent reduction in ELISA signal: 0%
VSTB174 [4]
  percent reduction in ELISA signal: 12%
Antibody No. 245.1 [5]
  percent reduction in ELISA signal: 0%
Antibody No. 465.1 [6]
  percent reduction in ELISA signal: 0%
